The source of these data is article PMC2700855 (Proteins, 2009).

The labels stand for the following.
T1: RFXAP (UniProt O00287 1-272)
T1 sequence (looked up): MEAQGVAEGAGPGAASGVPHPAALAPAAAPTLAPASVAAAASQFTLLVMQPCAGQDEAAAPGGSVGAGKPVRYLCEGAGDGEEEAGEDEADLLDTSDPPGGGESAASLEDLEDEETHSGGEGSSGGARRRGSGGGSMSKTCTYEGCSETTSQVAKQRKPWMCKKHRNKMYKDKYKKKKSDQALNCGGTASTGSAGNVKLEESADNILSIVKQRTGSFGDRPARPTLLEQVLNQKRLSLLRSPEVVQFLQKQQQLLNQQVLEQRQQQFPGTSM

B1: RFX5(25-90) (domain or fragment, UniProt P48382 25-90, looked up)
chain: GEPTTLLQRLRGTISKAVQNKVEGILQDVQKFSDNDKLYLYLQLPSGPTTGDKSSEPSTLSNEEYM
B2: RFXAP(215-272,F217Y) (domain or fragment, UniProt O00287 215-272, looked up)
chain: GSYGDRPARPTLLEQVLNQKRLSLLRSPEVVQFLQKQQQLLNQQVLEQRQQQFPGTSM
B3: RFX5(1-330) (domain or fragment, UniProt P48382 1-330, looked up)
chain: MAEDEPDAKSPKTGGRAPPGGAEAGEPTTLLQRLRGTISKAVQNKVEGILQDVQKFSDNDKLYLYLQLPSGPTTGDKSSEPSTLSNEEYMYAYRWIRNHLEEHTDTCLPKQSVYDAYRKYCESLACCRPLSTANFGKIIREIFPDIKARRLGGRGQSKYCYSGIRRKTLVSMPPLPGLDLKGSESPEMGPEVTPAPRDELVEAACALTCDWAERILKRSFSSIVEVARFLLQQHLISARSAHAHVLKAMGLAEEDEHAPRERSSKPKNGLENPEGGAHKKPERLAQPPKDLEARTGAGPLARGERKKSVVESSAPGANNLQVNALVARLP
B4: RFX5(1-90) (domain or fragment, UniProt P48382 1-90, looked up)
chain: MAEDEPDAKSPKTGGRAPPGGAEAGEPTTLLQRLRGTISKAVQNKVEGILQDVQKFSDNDKLYLYLQLPSGPTTGDKSSEPSTLSNEEYM
B5: RFXB(88-260) (domain or fragment, UniProt O14593 88-260, looked up)
chain: TLDSLSIHQLAAQGELDQLKEHLRKGDNLVNKPDERGFTPLIWASAFGEIETVRFLLEWGADPHILAKERESALSLASTGGYTDIVGLLLERDVDINIYDWNGGTPLLYAVRGNHVKCVEALLARGADLTTEADSGYTPMDLAVALGYRKVQQVIENHILKLFQSNLVPADPE
B6: RFX5(187-265) (domain or fragment, UniProt P48382 187-265, looked up)
chain: EMGPEVTPAPRDELVEAACALTCDWAERILKRSFSSIVEVARFLLQQHLISARSAHAHVLKAMGLAEEDEHAPRERSSK
B7: RFX5(88-330) (domain or fragment, UniProt P48382 88-330, looked up)
chain: EYMYAYRWIRNHLEEHTDTCLPKQSVYDAYRKYCESLACCRPLSTANFGKIIREIFPDIKARRLGGRGQSKYCYSGIRRKTLVSMPPLPGLDLKGSESPEMGPEVTPAPRDELVEAACALTCDWAERILKRSFSSIVEVARFLLQQHLISARSAHAHVLKAMGLAEEDEHAPRERSSKPKNGLENPEGGAHKKPERLAQPPKDLEARTGAGPLARGERKKSVVESSAPGANNLQVNALVARLP
B8: RFXB (natural protein, UniProt O14593 1-260, looked up)
chain: MELTQPAEDLIQTQQTPASELGDPEDPGEEAADGSDTVVLSLFPCTPEPVNPEPDASVSSPQAGSSLKHSTTLTNRQRGNEVSALPATLDSLSIHQLAAQGELDQLKEHLRKGDNLVNKPDERGFTPLIWASAFGEIETVRFLLEWGADPHILAKERESALSLASTGGYTDIVGLLLERDVDINIYDWNGGTPLLYAVRGNHVKCVEALLARGADLTTEADSGYTPMDLAVALGYRKVQQVIENHILKLFQSNLVPADPE

Data set [1] concerns the molecule itself. Description: cross-linking.
Data set [2] concerns the molecule itself. Description: cross-linking. The source holds these as a separate data set.
The data set “RFXAP(215-272,F217Y)” has as its target B2. Description: SEC-MALS. (SEC sorts molecules by how far they enter the pores of the column.)
The data set “RFXB(88-260)” addresses B5. Briefly: SEC-MALS.
The data set “RFX5(25-90)” deals with B1. Briefly: SEC.
The data set “SEC” concerns the molecule itself. Briefly: SEC.
A further data set concerns the target T1, RFXAP. Description: SEC.
Data set [3] concerns the target RFX5(25-90)2•RFXAP(215-272) complex (UniProt P48382). Description: SEC-MALS. The settings on record: scale: RFXB(88-260) per RFX5(25-90)2•RFXAP(215-272).
The data set “RFX5(88-330)” addresses B7. Briefly: SEC.
Data set [4] addresses RFX5(25-90)2•RFXAP(215-272) complex (UniProt P48382). Description: ITC. In general terms: ITC needs no label: the signal is the heat of the interaction.
The data set “SEC-MALS” deals with the molecule itself. Briefly: SEC-MALS.
The target in the data set “RFXB” is B8. Description: SEC.
The data set “RFX5(1-330)” deals with B3. Description: SEC.

Usually stoichiometry N stands for a count of units in the complex or per binding partner. In the case of B1, the figures for the “stoichiometry N” value in “cross-linking [1]”, in “cross-linking [2]” and with RFXAP(215-272,F217Y) were 4, 2 and 2 RFX5(25-90) per RFXAP(215-272), respectively.

Regarding B2, the binding result with RFXB(88-260) and with RFX5(25-90) was “binds” throughout.

For the molecule B3, the “stoichiometry N” value in the data set “SEC” worked out at 2.

As for B4, the binding result in the data set with RFXAP is on record as “binds”.

A word on the Kd: it is the equilibrium constant for the complex coming apart. B5 displayed a stoichiometry N in [3] of 1. The binding result with RFX5(88-330) is listed as “binds”. Also, in data set [4], the Kd turned out to be 0.0755 µM and the stoichiometry N amounted to 1.02.

On to B6, for which, in “SEC-MALS”, the “stoichiometry N” value was found to be 2.

For the molecule B7, the binding result with RFXB is recorded as “binds”.

Take B8: the binding result in the data set with RFX5(1-330) and with RFXAP was “binds” each time.
